The nature of the data set: yeast display, Sf9 membrane polyspecificity reagent, FACS + sequencing; frameworks hold sequencing errors. The method, boiled down: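 Galactose-induced (36–48 hours) yeast carrying a synthetic nanobody display library were exposed to 10% biotinylated, detergent-solubilized Sf9 membrane reagent at 4 °C for 1 hour. FACS followed streptavidin microbead enrichment, using low and high (top ~1%) gates for expression (anti-HA) and reagent binding (streptavidin). Colony PCR, MiSeq 2 × 250 sequencing and CDR-length filtering followed. Labels for polyreactivity reflect the gate of origin.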
For the sequence “QVQLVESGGGLVQAGGSLRLSCAASGSIFRRKAMGWYRQAPGKERELVAAIRRGGSTNYADSVKGRFTISRDNAKNTVYLQMNSLKPEDTAVYYCAARGGSSGFYYWGQGTQVTVSS”, the “polyreactivity (PSR sort gate)” value was “high polyreactivity”. With “QVQLVESGGGLVQAGGSLRLSCAASGSIFRRNAMGWYRQAPGKERELVAAINSRGGSTYYADSVKGRFTISRDNAKNTVYLQMNSLKPEDTAVYYCATARFLRYDRYDDYWGQGTQVTVSS” the entry was “low polyreactivity”; with “QVQLVESGGGLVQAGGSLRLSCAASGSIFRRNAMGWYRQAPGKERELVAAISYSGGSTYYADSVKGRFTISRDNAKNTVYLQMNSLKPEDTAVYYCAADLYYGFGGYYYWGQGTQVTVSS”, “high polyreactivity”; with “QVQLVESGGGLVQAGGSLRLSCAASGSIFRRNAMGWYRQAPGKERELVAGISGGGSTYYADSVKGRFTISRDNAKNTVYLQMNSLKPEDTAVYFCATDKHFRWAGFDYWGQGTQVTVSS”, “low polyreactivity”. With “QVQLVESGGGLVQAGGSLRLSCAASGSIFRRNTMGWSRQATGKERELVAAITYRGGSTYYADSVKGRFTISRDNAKNTDYLQMNSLKPEESAVYYCARYLWYYRVSKSDSWGQGTQVTVSS” the entry was “high polyreactivity”. With “QVQLVESGGGLVQAGGSLRLSCAASGSIFRRNVMGWYRQAPGKERELVAAITGSGGSTYYADSVKGRFTISRDNAKNTVYLQMNSLKPEDTAVYYCAKVPYYSRPHDYWGQGTQVTVSS”, the “polyreactivity (PSR sort gate)” value is reported as “high polyreactivity”. In the case of “QVQLVESGGGLVQAGGSLRLSCAASGSIFRRYAMGWYRQAPGKERELVASISSRGTRTYYADSVKGRFTISRDTAKNTVYLQMNSLKPEDTAVYYCAASYYTPYDYWGQGTQVTVSS”, the “polyreactivity (PSR sort gate)” value is given as “high polyreactivity”. “QVQLVESGGGLVQAGGSLRLSCAASGSIFRRYAMGWYRQAPGKERELVAVITTDGSTYYADSVKGRFTISRDNAKNTVYLQMNSLKPEDTAVYYCAADVRHYIWEYYYWGQGTQVTVSS”: the “polyreactivity (PSR sort gate)” value is on record as “low polyreactivity”. For “QVQLVESGGGLVQAGGSLRLSCAASGSIFRSNAMGWYRQAPGKERELVAAISSSGGSTYYADSVKGRFTISRDNAKNTVYLQMNSLKPEDTAVYYCNTSVDRGLGYWGQGTQVTVSS”, the “polyreactivity (PSR sort gate)” value is reported as “low polyreactivity”.

Turning to “QVQLVESGGGLVQAGGSLRLSCAASGSIFRSNTMGWYRQAPGKERELVAGISYSGGSTYADSVKGRFTISRDNAKNTVYLQMNSLKPEDTAVYYCNTVYDPHTGQSDSWGQATQVTVSS”, the “polyreactivity (PSR sort gate)” value is “low polyreactivity”. On to “QVQLVESGGGLVQAGGSLRLSCAASGSIFRSYAMGWYRQAPGKEREFVAAINSRSGSTYYADSVKGRFTISRDNAKNTVYFQINSLKPEDTAVYYWAVTYYTRGYGHMDYWGQGTQVTVSS”, for which the “polyreactivity (PSR sort gate)” value is given as “high polyreactivity”. On to “QVQLVESGGGLVQAGGSLRLSCAASGSIFRSYAMGWYRQAPGKERELVAGITSSGGSTYADSVKGRFTISRDNAKNTVYLQMNSLKPEDTAVYFCAKPGFEWLLTRLFSVSEYDYWGQGTQVTVSS”, for which the “polyreactivity (PSR sort gate)” value is “low polyreactivity”.

For the sequence “QVQLVESGGGLVQAGGSLRLSCAASGSIFRSYAMGWYRQAPGKERELVARITYRGGGTYYADSVKGRVTISRDNAKNTVYLQMKSLKPEVTAVYYCAASGAFVRTRVTTADYDYWGQGTQVTVSS”, the “polyreactivity (PSR sort gate)” value was “high polyreactivity”.

With “QVQLVESGGGLVQAGGSLRLSCAASGSIFRSYAMGWYRQAPGKERELVASISRRGGSTYYADSVKGRFTISRDNAKNSVYLQMNSLKPEDTAVYYCAAVRYNSRVSTTPSEMYYWGQGTQVTVSS”, the “polyreactivity (PSR sort gate)” value is listed as “low polyreactivity”. Turning to “QVQLVESGGGLVQAGGSLRLSCAASGSIFRTNAMGWYRQAPGKERELVAAITGSGGSTYYADSVKGRFTISRDNAKNTVYLQMNSLKPVDTAVYYCAADGQLPPRGILASWEFDYWGQGTQVTVSS”, the “polyreactivity (PSR sort gate)” value was “low polyreactivity”.

As for “QVQLVESGGGLVQAGGSLRLSCAASGSIFRTYAMGWYRQAHGKETELVAAITRSGGTTYYADSVKGRFTISRDNAKNTVYLQMNSLKPEDTAVYFCNAQGYWYKGRRRGDYWGQGTQVTVSS”, the “polyreactivity (PSR sort gate)” value is “high polyreactivity”. Then “QVQLVESGGGLVQAGGSLRLSCAASGSIFRVYAMGRYRQAPGKERELVATISGSAGRTYYADSVKGRFTISRDNAKNTVYLQMNSLKPEDTAVYYCAARWYKEYYWGQGTQVTVSS”, with “high polyreactivity”.

Regarding “QVQLVESGGGLVQAGGSLRLSCAASGSIFRVYAMGWYRQAPGKERELVAAISKSGSSTYYADSVKGRFTISRDNAKNTVYLQMNSLKPEDTAVYYCAARRVLGEYGYWGQGTQVTVSS”, the “polyreactivity (PSR sort gate)” value is recorded as “high polyreactivity”. In the case of “QVQLVESGGGLVQAGGSLRLSCAASGSIFRVYAMGWYRQAPGKERELVAAISWGGGTTYYADSVKGRFTISRDNAKNTVYLQMNSLKPEDTAVYYCNKVGVRSGARSIYVVRRYEYWGQGTQVTVSS”, the “polyreactivity (PSR sort gate)” value was “high polyreactivity”.

For the sequence “QVQLVESGGGLVQAGGSLRLSCAASGSIFRVYAMGWYRQAPGKERELVAAISWGRGTTYYADSVKGRFTISRDNAKNTVYLQMTSLKPEDTAVYYCAAGGVGAYDYWGQGTQVTVSS”, the “polyreactivity (PSR sort gate)” value is listed as “high polyreactivity”.

On to “QVQLVESGGGLVQAGGSLRLSCAASGSIFRWYAMGWYRKAPGKERELVARITVSGGSTYYADSVKGRFTISRDNAKNTVYLEMNSLKPEDTAVYYCNARAHYTPDGGGDYWGQGTQVTVSS”, for which the “polyreactivity (PSR sort gate)” value is “high polyreactivity”. Then “QVQLVESGGGLVQAGGSLRLSCAASGSIFRWYAMGWYRQAPGKEREFVAAISWSGTSTYYADSVKGRFTISRDNAKNTVYLQMNSLKPEDTAVYYCNALLPSSRAPDYGYWGQGTQVTVSS”, with “high polyreactivity”; and “QVQLVESGGGLVQAGGSLRLSCAASGSIFRWYAMGWYRQAPGKERELVAGISSTGGSTYYADSVKGRFTISRDNAKNTVYLQMNSLKPEDTAVLYCAVVSYPSAFRRYNYWGQGTQVTVSS”, with “high polyreactivity”. Turning to “QVQLVESGGGLVQAGGSLRLSCAASGSIFRYNAMGWYRQAPGKDRELVAAISSGGSTKYADSVKGRFTISRDNAKNTVYLQMNSMKPEDTAVYFCVARRARYDYWGQGTQVTVSS”, the “polyreactivity (PSR sort gate)” value is “high polyreactivity”. “QVQLVESGGGLVQAGGSLRLSCAASGSIFRYNAMGWYRQAPGKERELVAAISSGGSTKYADSVKGRFTISRDNAKKTVYLQMNSLKPEDTAVYYCVARRARYDYWGQGTQVTVSS”: the “polyreactivity (PSR sort gate)” value was “high polyreactivity”. Consider “QVQLVESGGGLVQAGGSLRLSCAASGSIFRYNAMGWYRQAPGKERELVAAITRSGGRTYYADSVKGRFTISRDNAKNTVYLQMNSLKPEDTAVYYCAAKGYTYGLTYDYWGQGTQVTVSS”, for which the “polyreactivity (PSR sort gate)” value is reported as “high polyreactivity”. Then “QVQLVESGGGLVQAGGSLRLSCAASGSIFRYNAMGWYRQAPGKERELVAGITWGGGRTYYADSVKGRFTISRDNAKNTVYLQMNSLKPEDTAVYYCAAVIARPAVQAYLVTKYDYWGQGTQVTVSS”, with “high polyreactivity”. For “QVQLVESGGGLVQAGGSLRLSCAASGSIFRYYAMGWYRQAPGKEREFVAAINTNDAGTYYADSVKGRFTISRDNAKNTVYLQMNSLKPEDTAVYYCAADTGYPFWYDYWGQGTQVTVSS”, the “polyreactivity (PSR sort gate)” value is “high polyreactivity”. With “QVQLVESGGGLVQAGGSLRLSCAASGSIFRYYAMGWYRQAPGKERELVAAIRWSGGSTYYADSVKGRFTISRDNAKNTVYLQMNSLKPEDTAVYYCAARVGYRGSRQYSSYTLVDYWGQGTQVTVSS” the entry was “high polyreactivity”; with “QVQLVESGGGLVQAGGSLRLSCAASGSIFRYYAMGWYRQAPGKERELVAAISSGTITNYADSVKGRFTISRDNAKNTVYLQMNSLKPEDTAVYYCAADTWYLGYPDYWLDYWGQGTQVTVSS”, “low polyreactivity”; with “QVQLVESGGGLVQAGGSLRLSCAASGSIFRYYAMGWYRQAPGKERELVAAITGRGGSTYYADSVKGRFTISRDNAKNTVYLQMNSLKPEDTAVYYCADYIDANVHRFDYWGQGTQVTVSS”, “low polyreactivity”.

On to “QVQLVESGGGLVQAGGSLRLSCAASGSIFRYYAMGWYRQAPGKERELVATISRDGGNTYYADSVKGRFTISRDNAKNTVYVQMNSLKPEDTAVYYCAKLGYRLSGYGYDYWGQGTQVTVSS”, for which the “polyreactivity (PSR sort gate)” value is “high polyreactivity”. As for “QVQLVESGGGLVQAGGSLRLSCAASGSIFRYYAMGWYRQAPGKERELVATITFNGGNTYYADSVKGRFTISRDNAKNTVYLQMNSLKPEDTAVYYCAATYVRRGPTRYYYWGQGTQVTVSS”, the “polyreactivity (PSR sort gate)” value is “high polyreactivity”.

Take “QVQLVESGGGLVQAGGSLRLSCAASGSIFRYYAMGWYRQAPGKERELVATITSGGSTSYADSVKGRFTISRDNAKNTVYLQMNSLKPEDTAVYYCAKRSRHNKYYYWGQGTQVTVSS”: the “polyreactivity (PSR sort gate)” value is listed as “high polyreactivity”. With “QVQLVESGGGLVQAGGSLRLSCAASGSIFRYYAMGWYRQAPGKERELVAVITRGGSTYYADSVKGRFTISRDNAKNTVYLQMNRLKPEDTAVYYCAADFWPAGLDRGYWGQGTQVTVSS” the entry was “low polyreactivity”. With “QVQLVESGGGLVQAGGSLRLSCAASGSIFRYYAMGWYRQAPGKERELVAVITSSGTSTYYADSVKGRFTISRDNAKNTVYLQMNSLKPEDTAVYYCARRSSGELRYHIYDYWGQGTQVTLSS” the entry was “low polyreactivity”; with “QVQLVESGGGLVQAGGSLRLSCAASGSIFRYYAMGWYRQAPGKESEFVASITYRGGRTYYADSVKGRFTISRDNAKNTVYLQMNSLKPEDTAVYYCAARTRAGAWTSKYHDYWGQGTQVTVSS”, “high polyreactivity”. For the sequence “QVQLVESGGGLVQAGGSLRLSCAASGSIFRYYGMGWSRQAPGKERELVAAITWRGSSTYYADSVKGRFTISRDNAKNSVYLQMNSLNPEDTAVYYCAAYSASYGGYDYWGQGTQVTVSS”, the “polyreactivity (PSR sort gate)” value is on record as “high polyreactivity”.

In the case of “QVQLVESGGGLVQAGGSLRLSCAASGSIFRYYTMGWDRQAPGKERELVAAISWSGGRTYYADSVKGRFTISRDNAKNTVYLQMNSLKPEDTAVYYCAAVRPYYYPLPTVPNLPYDYWGQGTQVTVSS”, the “polyreactivity (PSR sort gate)” value was “high polyreactivity”. Then “QVQLVESGGGLVQAGGSLRLSCAASGSIFRYYTMGWYRQAPGKERELVAGINRGGRTYYADSVKGRYTISRDNAKNTVYLQMNSLKPEDTAVYYCAAVTYYGFDYWGQGTQVTVSS”, with “high polyreactivity”.

On to “QVQLVESGGGLVQAGGSLRLSCAASGSIFRYYVMGWYRQAPGKERELVAAISSGGRTYYADSVKGRFTISRDNAKNTVYLQMNSLKPEDTAVYYCAAGEPTRGDYWGQGTQVTVSS”, for which the “polyreactivity (PSR sort gate)” value was “high polyreactivity”.

(Values after the nanobody polyreactivity screen of Harvey et al. (2022).)
